Experimental data reported in paper PMC6059731 (Science Advances, 2018).
Ends that are not written are not given here.

Biological target: the molecule itself
Assay: SEC-SAXS

## GIGDPVTCLKSGAICHPVFCPRRYKQIGTCGLPGTKCCKKP (natural protein, UniProt O15263 24-64, looked up, ends and bridges not checked; cysteine pairing not given here) [Human β-defensin 2 (HBD-2)]
  monomer/dimer ratio (dimer part of 70:30): 30
